# B1: hG1-20E5 (antibody, from another filing, V domains shown)
# VH: EVQLQQSGPELVKPGASVKMSCKASGYTFTSYVMHWVKQKPGQGLEWIGYINPYNDGTKYNEKFKGKATLTSDKSSSTAYMELSSLTSEDSAVYYCANYYGSSLSMDYWGQGTSVTVSS
# VL: DIQMTQTTSSLSASLGDRVTISCRASQDISNYLNWYQQKPDGTVKLLIYYTSRLHSGVPSRFSGSGSGTDYSLTISNLEQEDIATYFCQQGNTLPWTFGGGTKLEIKR
# How the values were obtained:
# human OX40 (human) [1] = biological target: human OX40 (human) (UniProt P43489); assay: cell-based or functional assay
# [2] = biological target: cynomolgus monkey OX40 (cynomolgus monkey); assay: flow cytometry on cOX40-Jurkat-NF-κB cells
# human OX40 (human) [3] = biological target: human OX40 (human) (UniProt P43489); assay: flow cytometry, traditional IgG1 bivalent mAb on hOX40-Jurkat-NF-κB cells, APC anti-human IgG Fc detection
# human OX40 (human), sequence (P43489 29-277): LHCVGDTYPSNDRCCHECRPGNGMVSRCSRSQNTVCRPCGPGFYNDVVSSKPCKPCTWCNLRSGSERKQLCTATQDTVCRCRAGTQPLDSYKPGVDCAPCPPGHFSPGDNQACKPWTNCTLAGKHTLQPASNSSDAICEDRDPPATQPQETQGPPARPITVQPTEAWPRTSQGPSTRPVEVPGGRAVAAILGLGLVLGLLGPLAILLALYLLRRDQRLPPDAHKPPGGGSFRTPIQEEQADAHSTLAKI
binder,measurement,setting,value
B1,"percentage of GFP positive hOX40/hIL-12R/Jurkat-NF-κB reporter cells in the presence of A20-hFcγRI cells, EC50",human OX40 (human) [1],0.13 nM
same,fold difference of EC50 against hOX40-Jurkat-NF-κB cells,[2],< 2 fold
same,EC50,human OX40 (human) [3],10.2 nM
